Measurements from paper PMC6749138.

How the values were obtained:
[1] = biological target: HA-tagged HIV-1 Nef E63A/F68A double mutant (HIV-1 (NL4-3)) (UniProt P03406)
[2] = biological target: HA-tagged HIV-1 Nef E63A (HIV-1 (NL4-3)) (UniProt P03406)
[3] = biological target: HA-tagged HIV-1 Nef F68A (HIV-1 (NL4-3)) (UniProt P03406)

Substance: adaptor protein 1 (AP-1) complex (from UniProt Q9BXS5 1-423)
- ratio of the GFP+ MHC-I- population of HEK293T cells transfected with Nef (flow cytometry; wild type 34.9%) [1]: 19.2%
- ratio of the GFP+ MHC-I- population of HEK293T cells transfected with Nef (flow cytometry; wild type 34.9%) [2]: 25.7%
- ratio of the GFP+ MHC-I- population of HEK293T cells transfected with Nef (flow cytometry; wild type 34.9%) [3]: 23.2%
